Data reported in article doi:10.1101/2025.05.13.653815, “Roles of the MO25 protein Pmo25 in contractile-ring stability and localization of the NDR kinase Sid2 during cytokinesis” (bioRxiv, 2025).

Assays:
[1] = target: T1, MBP-Ync13-full length-6His (S. pombe, UniProt O13683 1-1237); experiment: pull-down; Kd by supernatant depletion: various concentrations of MBP-Ync13 on amylose beads with a fixed low concentration of Pmo25-(19-329)-6His, 1 h at 4°C; supernatant on SDS-PAGE, Coomassie Blue; one site binding equation; settings: both partners purified
T1 construct: pET21a-MBP: MBP-TEV-GGSGGS stands before Ync13, 6xHis after it; not shown: MBP, N-terminal, kept; His6, C-terminal, kept
T1 sequence (looked up): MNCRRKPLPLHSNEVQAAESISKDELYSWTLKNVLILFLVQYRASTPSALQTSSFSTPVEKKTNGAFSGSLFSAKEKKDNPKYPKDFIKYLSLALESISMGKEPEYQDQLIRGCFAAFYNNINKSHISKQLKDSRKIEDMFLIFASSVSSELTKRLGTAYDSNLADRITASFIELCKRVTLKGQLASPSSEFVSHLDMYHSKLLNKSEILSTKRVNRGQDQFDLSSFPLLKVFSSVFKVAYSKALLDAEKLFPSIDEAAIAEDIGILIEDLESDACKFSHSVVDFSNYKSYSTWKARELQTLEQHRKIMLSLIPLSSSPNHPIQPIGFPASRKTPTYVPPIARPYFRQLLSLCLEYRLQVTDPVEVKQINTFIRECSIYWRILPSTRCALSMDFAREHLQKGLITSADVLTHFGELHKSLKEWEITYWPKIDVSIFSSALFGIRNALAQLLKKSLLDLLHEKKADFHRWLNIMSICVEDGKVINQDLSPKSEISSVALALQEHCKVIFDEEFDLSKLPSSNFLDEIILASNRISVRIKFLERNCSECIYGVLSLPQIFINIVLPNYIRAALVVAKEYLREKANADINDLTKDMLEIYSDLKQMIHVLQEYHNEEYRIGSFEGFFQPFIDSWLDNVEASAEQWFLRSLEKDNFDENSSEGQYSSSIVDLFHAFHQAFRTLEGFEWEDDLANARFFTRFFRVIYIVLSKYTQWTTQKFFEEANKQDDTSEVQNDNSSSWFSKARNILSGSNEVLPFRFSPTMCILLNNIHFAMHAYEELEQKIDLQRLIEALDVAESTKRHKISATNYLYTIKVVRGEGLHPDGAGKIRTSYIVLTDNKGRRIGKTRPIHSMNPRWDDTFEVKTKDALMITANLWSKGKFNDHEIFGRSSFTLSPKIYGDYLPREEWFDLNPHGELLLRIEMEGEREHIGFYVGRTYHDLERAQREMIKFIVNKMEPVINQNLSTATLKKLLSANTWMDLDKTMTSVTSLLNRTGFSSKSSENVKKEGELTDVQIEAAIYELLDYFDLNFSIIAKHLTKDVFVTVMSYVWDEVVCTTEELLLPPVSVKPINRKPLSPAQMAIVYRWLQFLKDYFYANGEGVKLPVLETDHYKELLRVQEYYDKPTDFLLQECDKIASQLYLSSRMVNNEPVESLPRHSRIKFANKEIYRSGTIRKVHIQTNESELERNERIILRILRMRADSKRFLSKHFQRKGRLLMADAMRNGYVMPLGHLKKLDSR

[2] = target: T2, MBP-Ync13-(591-1130)-6His (S. pombe, UniProt O13683 591-1130); experiment: as above; settings: both partners purified
T2 construct: The cloning of this truncation is not described; not shown: MBP, N-terminal, kept; His6, C-terminal, kept
T2 sequence (looked up): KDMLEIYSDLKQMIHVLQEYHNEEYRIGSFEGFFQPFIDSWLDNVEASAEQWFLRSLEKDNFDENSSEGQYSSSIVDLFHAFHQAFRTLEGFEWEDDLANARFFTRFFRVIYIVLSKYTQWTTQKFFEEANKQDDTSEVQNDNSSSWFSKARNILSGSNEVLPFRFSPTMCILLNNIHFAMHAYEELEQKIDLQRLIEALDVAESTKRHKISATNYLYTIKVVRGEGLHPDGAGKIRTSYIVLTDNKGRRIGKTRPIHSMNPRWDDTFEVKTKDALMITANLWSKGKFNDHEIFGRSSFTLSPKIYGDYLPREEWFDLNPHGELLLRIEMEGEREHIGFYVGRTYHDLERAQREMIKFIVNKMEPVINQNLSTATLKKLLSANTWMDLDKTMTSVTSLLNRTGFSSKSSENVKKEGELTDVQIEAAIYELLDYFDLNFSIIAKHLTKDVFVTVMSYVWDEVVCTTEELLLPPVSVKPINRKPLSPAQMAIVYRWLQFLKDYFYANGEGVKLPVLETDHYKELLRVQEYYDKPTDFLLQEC

B1: Pmo25-(19-329)-6His (domain or fragment, S. pombe, UniProt Q9P7Q8 19-329, looked up)
chain: LCDNLPKLEINNDKKKSFEEVSKCLQNLRVSLCGTAEVEPDADLVSDLSFQIYQSNLPFLLVRYLPKLEFESKKDTGLIFSALLRRHVASRYPTVDYMLAHPQIFPVLVSYYRYQEVAFTAGSILRECSRHEALNEVLLNSRDFWTFFSLIQASSFDMASDAFSTFKSILLNHKSQVAEFISYHFDEFFKQYTVLLKSENYVTKRQSLKLLGEILLNRANRSVMTRYISSAENLKLMMILLRDKSKNIQFEAFHVFKLFVANPEKSEEVIEILRRNKSKLISYLSAFHTDRKNDEQFNDERAFVIKQIERL
notes: pET21a, between the N-terminal T7 tag and the C-terminal 6xHis tag; not shown: His6, C-terminal, kept
For B1, the Kd [1] was 490 nM and the Kd [2] was 620 nM.
